Results: patent US20130058911

Tested on: metmyoglobin

Row | Substance | metmyoglobin reduction activity (change in A406 with NADH)
1 | recombinant putative NAD(P)H nitroreductase (yodC) of Bacillus natto with C-terminal 6x His-tag | the activity of yodC was confirmed
2 | recombinant malate dehydrogenase (MDH) of Bacillus natto with C-terminal 6x His-tag | the activity of MDH was not found
